According to patent publication US10925969B2, “Anti-BCMA polypeptides and proteins” (priority 2015, dated 2021):

Columns and labels:
H929 cells [1] = assay: In vitro sensitivity to abraxane and bortezumib; format: cell-based; conditions: Homo sapiens, NCI-H929
Method: The sensitivity of H929 and U266B cells to abraxane and bortezumib (BTZ) was measured in vitro.

H929 = assay: WST assay of immunotoxin activity; format: cell-based
Method: (§1) The activity of the anti-BCMA immunotoxins against BCMA-expressing cell lines and cells from four multiple myeloma patients was tested by WST assay.

HUT-102 = assay: WST assay of immunotoxin activity; format: cell-based
Method: as §1

JJN-3 = assay: WST assay of immunotoxin activity; format: cell-based
Method: as §1

Jeko-1 = assay: WST assay of immunotoxin activity; format: cell-based
Method: as §1

KMS-18 = assay: WST assay of immunotoxin activity; format: cell-based
Method: as §1

LP-1 = assay: WST assay of immunotoxin activity; format: cell-based
Method: as §1

RPMI-8226 = assay: WST assay of immunotoxin activity; format: cell-based
Method: as §1

U266B = assay: WST assay of immunotoxin activity; format: cell-based
Method: as §1

MM-1 cells from patient = assay: WST assay, cells from multiple myeloma patient; format: cell-based, human; conditions: cells from patient MM-1
Method: as §1

MM-2 cells from patient = assay: WST assay, cells from multiple myeloma patient; format: cell-based, human; conditions: cells from patient MM-2
Method: as §1

MM-3 cells from patient = assay: WST assay, cells from multiple myeloma patient; format: cell-based, human; conditions: cells from patient MM-3
Method: as §1

MM-4 cells from patient = assay: WST assay, cells from multiple myeloma patient; format: cell-based, human; conditions: cells from patient MM-4
Method: as §1

BCMA-positive H929 cells = assay: Cell killing at fixed dose, trypan blue staining after timed exposure; format: cell-based; conditions: H929, 100 ng/ml
Method: Cell killing activity was measured by trypan blue staining of cells taken at various time points (days) after exposure to the immunotoxin.

H929 xenograft tumors = assay: Antitumor activity in mice with H929 xenograft tumors; format: in vivo; conditions: 1.5 mg/kg QODX5, SCID mice
Method: To test the in vivo efficacy of LMB38 and LMB70, tumors were grown in SCID mice using the most sensitive cell line H929. Based on the previous toxicity data, 1.5 mg/kg QODX5 doses were used on 5 mice in each group. […] However, the tumors grew back once the treatment was finished.

H929 cells [2] = assay: WST-8 assay of AF647-labeled and unlabeled LMB70; format: cell-based; conditions: in ng/mL
Method: (§2) LMB70 was labeled with AF647 for measurement of uptake in vivo. LMB70 was labeled twice with AF647 using an AF647 labeling kit (Life Technologies). Labeling efficacy and activity were measured by WST-8 assay and affinity measurement.

BCMA = target: T1, BCMA (Homo sapiens, UniProt Q02223); assay: Affinity measurement of AF647-labeled and unlabeled LMB70; format: binding; conditions: after the first labeling
T1 sequence (Q02223 1-184): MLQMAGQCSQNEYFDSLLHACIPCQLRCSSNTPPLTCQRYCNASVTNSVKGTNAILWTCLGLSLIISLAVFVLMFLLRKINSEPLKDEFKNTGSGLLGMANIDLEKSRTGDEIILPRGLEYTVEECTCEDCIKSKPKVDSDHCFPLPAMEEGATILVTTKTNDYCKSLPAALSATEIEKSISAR
Method: as §2

H929 cells [3] = assay: Cell viability by flow cytometry (Annexin V/7AAD staining) after various exposure durations; format: cell-based; conditions: viability after 3 days
Method: H929 cells were exposed to LMB70 for various durations. Cell viability was analyzed after 3 days by flow cytometry (Annexin V/7AAD staining).
H929 cells were exposed to 2 ng/ml LMB70 for various lengths of time from 10 minutes up to 72 hours. Cell viability was analyzed after 3 days by flow cytometry (Annexin V/7AAD staining).

H929 cells [4] = assay: Cell viability by trypan blue staining after 20 minute exposure; format: cell-based; conditions: 100 ng/ml for 20 minutes
Method: H929 cells were exposed to 100 ng/ml LMB70 for 20 minutes. Cell viability was analyzed with trypan blue staining.

H929 cells [5] = assay: Cell viability and cell density at varying LMB70 concentrations; format: cell-based; conditions: 2 hours or 6 hours exposure
Method: H929 cells were exposed to 2, 10, and 100 ng/ml LMB70 for 2 hours or 6 hours. Cell viability and cell density were analyzed.

CC(C)C[C@H](NC(=O)[C@H](Cc1ccccc1)NC(=O)c1cnccn1)B(O)O [BTZ, bortezomib]
IC50 (H929 cells [1]): 4 nM

B1: LMB70: anti-BCMA immunotoxin BM306-Fab-LR-GGS (conjugate)
VH: EVQLQQSGPELVKPGASVKISCKTSGYTFTEYTINWVKQSHGKSLEWIGDIYPDNYNIRYNQKFKGKATLTVDKSSSTAYMELRSLSSEDSAIYYCANHDFFVFWGQGTLVTVSA
VL: DIQMTQATSSLSASLGDRVTINCRTSQDISNHLNWYQQKPDGTVKLLIYYTSRLQSGVPSRFSGSGSGTDYSLTISNLEQEDIGTYFCHQGNTLPPTFGGGTKLEIK
modifications: left off: another chain or arm of the molecule; a dimerising Fc or GST; small tags and cut ends
notes: anti-BCMA immunotoxin BM306-Fab-LR-GGS
IC50 (H929): 0.0011 µg/mL | IC50 (HUT-102): >0.1 µg/mL | IC50 (JJN-3): 0.004 µg/mL | IC50 (Jeko-1): >0.1 µg/mL | IC50 (KMS-18): 0.065 µg/mL | IC50 (LP-1): 0.02 µg/mL | IC50 (RPMI-8226): 0.0051 µg/mL | IC50 (U266B): 0.005 µg/mL | IC50 (MM-1 cells from patient): 0.0004 µg/mL | IC50 (MM-2 cells from patient): 0.017 µg/mL | IC50 (MM-3 cells from patient): 0.0023 µg/mL | IC50 (MM-4 cells from patient): 0.0179 µg/mL | Percent dead (BCMA-positive H929 cells; 2 hr exposure, D-1): 43% | Percent dead (BCMA-positive H929 cells; 2 hr exposure, D-2): 88% | Percent dead (BCMA-positive H929 cells; 2 hr exposure, D-5): 100% | Percent dead (BCMA-positive H929 cells; 2 hr exposure, D-7): 100% | Percent dead (BCMA-positive H929 cells; 4 hr exposure, D-1): 44% | Percent dead (BCMA-positive H929 cells; 4 hr exposure, D-2): 89% | Percent dead (BCMA-positive H929 cells; 4 hr exposure, D-5): 100% | Percent dead (BCMA-positive H929 cells; 4 hr exposure, D-7): 100% | Percent dead (BCMA-positive H929 cells; 6 hr exposure, D-1): 42% | Percent dead (BCMA-positive H929 cells; 6 hr exposure, D-2): 88% | Percent dead (BCMA-positive H929 cells; 6 hr exposure, D-5): 100% | Percent dead (BCMA-positive H929 cells; 6 hr exposure, D-7): 100% | Percent dead (BCMA-positive H929 cells; 24 hr exposure, D-1): 51% | Percent dead (BCMA-positive H929 cells; 24 hr exposure, D-2): 95% | Percent dead (BCMA-positive H929 cells; 24 hr exposure, D-5): 100% | Percent dead (BCMA-positive H929 cells; 24 hr exposure, D-7): 100% | tumor growth compared to PBS-treated mice (H929 xenograft tumors): delayed | tumors once the treatment was finished (H929 xenograft tumors): grew back | IC50 (WST-8) (H929 cells [2]; after the first labeling): 1.532 | IC50 (WST-8) (H929 cells [2]; after the second labeling): 2.758 | Bmax (affinity measurement) (BCMA): 2220 | cell death (H929 cells [3]; 2 ng/ml, even after 24 hours of exposure): did not die | exposure time sufficient to kill cells (H929 cells [3]; 100 ng/ml): ≤ 10 min | time after exposure at which cells started to die (H929 cells [4]): 24 h | time after which all cells were dead (H929 cells [4]): 3 days | effect on cell viability and growth (H929 cells [5]; 2 ng/ml): slight growth inhibition, but no cell killing | effect on cell viability and growth (H929 cells [5]; 10 ng/ml): not enough to kill all cells
